Tested on: MS2 coat protein
Assay: apparent KD of MS2 coat protein; higher = weaker reporter binding
Conditions: Eterna round: R107
Procedure, shortened: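 Designed RNA switches were made by on-chip transcription from Illumina sequencing clusters and then titrated with SNAP-549-labelled MS2 coat protein. Twofold steps ran from 0.7 or 1.5 nM to 3 µM, each lasting 0.8–1.5 h early and 10–20 min late, in 100 mM Tris-HCl pH 7.5, 80 mM KCl, 4 mM MgCl2, without or with constant ligand. Apparent KD is the per-design median of normalised cluster binding-curve fits.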

[1] = input ligand: theophylline 20 uM
[2] = input ligand: theophylline 2 mM
[3] = input ligand: tryptophan 2.4 mM

Row | Sequence | apparent KD of MS2 coat protein (input ligand: arginine 13.2 mM) [nM] | apparent KD of MS2 coat protein (input ligand: none) [nM] | apparent KD of MS2 coat protein [1] [nM] | apparent KD of MS2 coat protein [2] [nM] | apparent KD of MS2 coat protein [3] [nM]
1 | ACAUGAGGAUCACCCAUGUAUUCAUCAGAAGGAGCGUGGAAUAACACAGGUAGGUCGCUGAUUAUUUGUUAAAUAAAUUCGUGUA [JR_Nu_SSArginiA_Sub023] | 19.3 | 16.1 | 19.1 | 16 | 16.4
2 | AGCUCAGAGAGUGAUACCAGACUACAUGAGGAUCACCCAUGUUACUUUUAAAUAUCAUGAGUCCCUUGGCAGCACAAGAAGAGCA [JR_ExcTheophyB_Sub016] | 40.1 | – | 117 | – | 73.2
3 | CCCGUAAAGGCGGCCGCCACUGUAUGACAUGAGGAUCACCCAUGUAGGGAAAAUGCGAUGGUCGUCAGGACCGGGCCUCUGGCAU [theeternabot_exclusion_MS2_Trp_B_5] | 17.4 | – | 29.3 | 28.2 | –
4 | CCUAUGCAGUCGGCCGCCACUGAAAUAAAUUAUAUUACCUCAGAAACAUGAGGAUCACCCAUGUACAGGACCGGGACUGUAUAGG [Ex Tryptophan B 15] | 26 | 35.3 | 44.2 | 26.2 | 56.3
5 | UAAACACAUGAGGAUCACCCAUGUCAUGAUACCAGUCAACAUGAGGACCCUUGGCAGCAUAAAAUGGGUAACAUGAGGAUCACCC [AstrosEXyTheA#2] | 46.2 | – | 78.4 | – | 51.5
6 | GGCACCGGGCGAAGGAGCGUGAAGACAUGAGGAUCACCCAUGUAGAGGCCCGGACAGGGUUCGCAGGUAGGUCGCGCGCGGUGCC [#1 Same State - Arginine B Attempt #8 (HarryS)] | 21.2 | 14.5 | 22.3 | 16.8 | 16.9
7 | GCACCAGGUACGGAUACCAGCUAUAGGCACAGAGGAGGACAUGAGGAUCACCCAUGUGAUGGCCCUUGGCAGCUGUACCUGGUGC [EThB NP+V+V2 #3] | 8.89 | 12.9 | 23.2 | 171 | 10.6
8 | ACCUCACUCUCUGAUACCAGCUAAUAACAUGAGGAUCACCCAUGUCAGACUUGUAUUGAUAGCCCUUGGCAGCAGAGGUAACUGC [Theo B Ex t2] | 9.42 | – | 11.9 | – | 10.6
9 | GCCUAGCAUCGAAGGAGCGCUGGUGAAACUGACUAAUAUACAUGAGGAUCACCCAUGUGCUAGCAGGUAGGUCGCGAUGCUAGGC [SSAB NP+V+V2 #11] | 20.4 | 21.7 | 27.2 | 25.5 | 21.1
10 | AUACAUGAGGAUCACCCAUGUCAUACAGAAGGAGCGUCAUAUUAGACAGGUAGGUCGCUGUAAUUUUUAUUAUUCUUUAUGUAUU [JR_Nu_ExcArginiA_Sub026] | 21.9 | 26 | 33.5 | 26.9 | 26.1
11 | AUCAUAAUAGACUCGUUAGAUUAUAUGGAACGAGGACCGGUACGGCCGCCACUCGUGAUGUACAUGAGGAUCACCCAUGUUAGCA [JR_SSTryptoA_Sub002] | 13.1 | – | 17.4 | 17.3 | –
12 | CAUACUUUAGUAUGUAAUGUGGACAGUGAUACCAGAUACGAAAGUAUCCCUUGGCAGCACAACAUGAGGAUCACCCAUGUAUUUU [Theophylline A 3] | 20.9 | – | 20 | – | 19.2
13 | AAUUCAAUUUUCUUGAUGUAUUAUAUAUUUCGAGGACCGGUACGGCCGCCACUCGUUAAUUACAUGAGGAUCACCCAUGUUAGCU [JR_ExcTryptoA_Sub009] | 13.6 | – | 17.5 | 16.2 | –
14 | ACUGUCUUUGAUGAUAUGUAUGGGUCAUUGCGAGGACCGGUACGGCCGCCACUCGGUCCGCCACAUGAGGAUCACCCAUGUCUAU [theeternabot_exclusion_MS2_Trp_A_37] | 56.8 | – | 94.6 | 195 | –
15 | AGUACAUGAGGAUCACCCAUGUACCAUGAUACCAGACAUGAAAAUGUCCCUUGGCAGCGUGGGUGAGGCAUCCGAAAGGAUGCCC [#05 SameState-TheophyllineA] | 51.1 | 223 | 185 | 30.5 | 77.7
16 | AGGACCAGGAACAUGGGUGAACUGGUCCAACGAGGACCGGUACGGCCGCCACUCGAAUAAACAUGAGGAUCACCCAUGUAAUAAU [T''-M-T'-T-MS2] | 83.3 | 327 | 296 | 442 | 210
17 | ACAUGAGGAUGGGAUACCAGAUACAUGAGGAUCACCCAUACAUGAGGAUCACCCAUGUCCGUCCCUUGGCAGCCCAACAUGAGGA [Exclusion Theophylline B] | 77.4 | – | 153 | – | 150
18 | AGUUAUUUCCGAAGGAGCGUUAUACAUGAGGAUCACCCAUGUACAUGAGGUUCAACAUGAAAACAGGUAGGUCGCGGAUUUUGUC [Exclusion Arginine B4] | 15.6 | 19.2 | 27.6 | 29 | 14.2
19 | GCAUGUGGAGUCUUACUAGAGAGGACAGAUACCAGUAAGAUGUGAUACCCUUGGCAGCUGCGAUUUACAUGAGGAUCACCCAUGU [X-TheoA-ms2@67] | 19.2 | – | 21.4 | – | 24.7

Row | Sequence | apparent KD of MS2 coat protein (input ligand: arginine 13.2 mM) [nM] | apparent KD of MS2 coat protein (input ligand: none) [nM] | apparent KD of MS2 coat protein [1] [nM] | apparent KD of MS2 coat protein [2] [nM] | apparent KD of MS2 coat protein [3] [nM]
20 | ACGUAAAGCAGAAGGAGCGUCUUCAAUUUACAUGAGGAUCACCCAUGUUUUGUGAUCAUAUGACAGGUAGGUCGCUGAAGUACGA [JR_SSArginiB_Sub002] | 85.9 | – | 152 | 141 | 123
21 | AGAUUUAUUUUGACCGGGCUCAUUCCUGAAGGAGCGCAGAACAAUGCAGGUAGGUCGCAGGACAUGAGGAUCACCCAUGUCAAGC [Isaes] | 14.2 | 20.7 | 18.3 | 19.9 | 18.8
22 | UGUAUGUGAUCUGAUACCAGUGACACGAAAGUGAAUCGCUUGAGGAUCACCCAAGUAAAACACCCUUGGCAGCAGAUCGCAUACU [Full moving switch bubble 1] | 20.3 | 15.6 | 23.5 | 25 | 15.6
23 | AGUGUUGUAACUGAUACCAGACCUUUGCUUAUACAUGAGGAUCACCCAUGUAAAAUGGCGGUCCCUUGGCAGCAGAGAAGACGCA [#10 Same State - Theophylline B] | 41.5 | – | 27 | – | 41.9
24 | UGUAUGUGAUCUGAUACCAGUCCAACUGGUAAAAUAUGAGGAUCACCCAUAUAAAAUUGGGACCCUUGGCAGCAGAUCGCAUACU | 108 | 265 | 632 | 129 | 492
25 | AAUGAUGCGAUCUACAGUCGAGGAUUCGAUACCAGCAACGGGCGUUGCCCUUGGCAGCGAGCUACAUGAGGAUCACCCAUGUUAC [theeternabot_exclusion_MS2_Theo_A_45] | 16.8 | – | 25.5 | – | 19.4
26 | ACCUGUACGAAAAGUGCAGGACAUGGAAAUCGAGGACCGGUACGGCCGCCACUCGUUGAAAACAAGUGGAUCACCCUUGUCCAUG [TrypAS 3 #AlternativeMS2 #Zipper #StaticStem] | 35.3 | 417 | 764 | 872 | 1070
27 | ACAUGAGGAUCACCCAUGUACAUGAGGGAAGGAGCGGUACAUGAGCCAGGUAGGUCGCCCAUGAGCAUCAGGCAUGUACAUCAGC [kokmmullin] | 47.6 | 99.5 | 97.3 | 105 | 56.6
28 | GGUCGCCUACAUGGGUAGGCGAUUUUGGAAGGAGCGAGCGAGAGCUCAGGUAGGUCGCCAGCACAUGAGGAUCACCCAUGUUUUU [SSArg-A #25 Weakened 1st state] | 20.8 | 16.1 | 20.9 | 21.8 | 18.7
29 | AUUAAUAGUUGUGAUACCAGACGAACAUGAGGAUCACCCAUGUAACUUUUAGGUGUUGUAGUCCCUUGGCAGCACUAUUUAGUUA [JR_SSTheophyB_Sub014] | 29.3 | – | 48.4 | – | 33.6
30 | GGGCCUACCUGAAGGAGCGACAUGAGGAUCACCCAUGUCUCCCGUUAUGGGAGUUCUUUAGGUCAGGUAGGUCGCAGGUAGGGCC [#1 Exclusion - Arginine B Attempt #4 (Inspired by Omei)] | 15.3 | 12.6 | 17 | 14.1 | 14.1
31 | ACAUGAGGAUCACCCAUGUAAUAAGGAGAAGGAGCGCGUAAGGACGCAGGUAGGUCGCUCGUGGUCCGGCCGCAAGGCCGGACCA [#1 Same State - Arginine A Attempt #8 (HarryS)] | 4.83 | 11.2 | 15.4 | 8.04 | 9.31
32 | UUGUUGUUUGGAAGGAGCGUGUAAGAUUAAGAACAUGAGGAUCACCCAUGUUGUAAGGUAGCACAGGUAGGUCGCCGGGUGGUGG [11.T] | 19.3 | 14.4 | 24.4 | 17.6 | 15.1
33 | CAGCCUGAUUGGUAAAUCCCUCAUCGUGAUACCAGUCGAGUGAUCGACCCUUGGCAGCACAUGAGGAUCACCCAUGUGCGCGUAA [Raisener] | 22 | – | 34.9 | – | 24
34 | UCGUGUAUAUCGGAUACCAGUGAGAAGGAUACAUGAGGAUCACCCAUGUGAGUUGAUGUACACCCUUGGCAGCUGUAUAUAUCUA [.plullin] | 36 | – | 62.7 | – | 47.9
35 | UGGUAGGUAGGAAGGAGCGCAUACUUCACAUGAGGAUCACCCAUGUCGAGACGUGAGUCAGUGCAGGUAGGUCGCCUAGUUAUGA [Same State - Arginine B (Freestyle 23)] | 30.4 | 36.4 | 36.1 | 37.6 | 30.3
36 | CGUAUUACGAAAGUAGUACGUAGUGUUCGACGAGGACCGGUACGGCCGCCACUCGGACAUGAGGAUCACCCAUGUAGCGAAAGCU [Tryptophan A 24] | 46.1 | 255 | 301 | 247 | 28.3
37 | GCUAGGUCUACGGCCGCCACUAGACGUGGGUAAGACAUGAGGAUCACCCAUGUACUACGGGCGAUUAGGACCGGGUAGACCUAGC [SSTB NP+V+V2 #16 Same Structure] | 50.5 | 309 | 527 | 646 | 66.9
38 | AUCAUCAGUUCGGCCGCCACUGUUUGGCACAGUUGUAUCGUACAUGAGGAUCACCCAUGUCACCACAGGACCGGGAACGCCGUCG [theeternabot_exclusion_MS2_Trp_B_1] | 16.3 | – | 21.6 | 18.3 | –

— the supplement of paper PMC9170038
